test: yeast display, Sf9 membrane polyspecificity reagent, FACS + sequencing; frameworks hold sequencing errors
Outline: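 In a synthetic yeast display library (Saccharomyces cerevisiae BJ5465), nanobody expression was induced with galactose for 36–48 hours. FACS gates were set low and high (top ~1%) using anti-HA fluorescence for expression and streptavidin fluorescence for binding of the Sf9 membrane reagent. Each polyreactivity label is drawn from the gate of origin.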

Sequence | polyreactivity (PSR sort gate)
QVQLVESGGGLVQAGGSLRLSCAASGSIFYLYTMGWYRQAPWKERELVAGISNGDRTYYADSVKGRFTISRDNAKNTVYLQMNSLKPEDTAVYYCAVTVYWYSRAAEYDYWGQGTQVTVSS | low polyreactivity
QVQLVESGGGLVQAGGSLRLSCAASGSIFYNNAMGWYRQAPGKERELVAAISGSGDSTYYADSVKGRFTISRDNAKNSVYLQMNSLKPEDTAVYYCNATPYVLWWSDMDYWGQGTQVTVSS | high polyreactivity
QVQLVESGGGLVQAGGSLRLSCAASGSIFYNNAMGWYRQAPGKERELVAAISWRGGSTYYADSVKGRFTISRDNAKNTVYLQMNSLKPEDTAVYYCNAGVRYRGFDYWGQGTQVTVSS | high polyreactivity
QVQLVESGGGLVQAGGSLRLSCAASGSIFYNYAMGWYRQAPGKEREFVAAISWSGDTTYYADSVKGRFTISRDNAKNTVYLQMNSLKPEDTAVYYCAAESYIWFWRPYYYWGQGTQVTVSS | low polyreactivity
QVQLVESGGGLVQAGGSLRLSCAASGSIFYNYAMGWYRQAPGKERELVAAIKRSGGITFYADSVKGRFTISRDNAKNTVYLQMNSLKPEVTAVYYCAADRSFGHHFWYTGKRYDYWGQGTKVTVSS | low polyreactivity
QVQLVESGGGLVQAGGSLRLSCAASGSIFYNYAMGWYRQAPGKERQLVATITRSDGSTYYADSVKGRFTISRDNAKNTVYLQMNSLKPEDTAVYYCNADSLWDSAFGYDYWGQGTQVTVSS | low polyreactivity
QVQLVESGGGLVQAGGSLRLSCAASGSIFYPYAMGWYRQAPGKEREFVAVISKGGTNTYYADSVKGRFTISRDNAKNTVYLQMNSLKPEDTAVYYCAARVDTYRAKYYYWGQGTQVTVSS | high polyreactivity
QVQLVESGGGLVQAGGSLRLSCAASGSIFYPYAMGWYRQAPGKERELVAAIRNGGSTYYADSVKGRFTISRDNAKNTVYLQMNSLKPEDTAVYYCAASVRRRHPFEYWGQGTQVTVSS | high polyreactivity
QVQLVESGGGLVQAGGSLRLSCAASGSIFYPYAMGWYRQAPGKERELVAAIRWRGGNTYYADSVKGRFTISRDNAKNTVYLQMNSLKPEDTAVYYCAADGKYLQGFGYYYWGQGTQVTVSS | high polyreactivity
QVQLVESGGGLVQAGGSLRLSCAASGSIFYPYAMGWYRQAPGKERELVAAISDSGDITYYADSVKGRFTISRDNAKNTVYLQMNSLKPEDTAVYYCAADRPWGYDYWGQGTQVSVSS | low polyreactivity
QVQLVESGGGLVQAGGSLRLSCAASGSIFYPYARGWYRQAPGKERELVASITINDGSTYYADSVKGRFTISRDNAKNTVYLQMNSLKPADTAVYYSAVDWLSVTSTIKFEMDYWGQGTQVTVSS | low polyreactivity
QVQLVESGGGLVQAGGSLRLSCAASGSIFYQNAMGWYRQAPGKERELVAAITSSGGSTYYADSVKGRFTISRDNAKNTVYLQMNSLKPEDTAVYYCNKYFSWRPYSYYYWGQGTQVTVSS | high polyreactivity
QVQLVESGGGLVQAGGSLRLSCAASGSIFYQNAMGWYRQAPGKESELVAAISWRGDSTSYADSVKGRFTISRDNAKNTVYLQMNSLKPEDPAVYYCATAHDYAFYRYWYVPSEYNYWGQGTLVTVSS | low polyreactivity
QVQLVESGGGLVQAGGSLRLSCAASGSIFYQYAMGWYRLAPGKERELVARITGSSGSTYYADSVKGRFTISRDNAKNTVYLQKNSLKPEDTAVYYCATDNYLIGDYWGQGTQVTVSS | high polyreactivity
QVQLVESGGGLVQAGGSLRLSCAASGSIFYRNAMGWYRQAPGKERELVAAISASGGSTYYADSVKGRFTISRDNAKITVYLQMNSLKPEDTAVYYCAVEYRKSRSYAPMGYWGQGTQVTVSS | high polyreactivity
QVQLVESGGGLVQAGGSLRLSCAASGSIFYRYAKGWYRQPPGKETELVAAIRTTGGRTYYADSVKGRFTISRDNAKNTVYLQMNSLKPADTAVYYCNALQAGVSYDYWGQGTQVTVSS | high polyreactivity
QVQLVESGGGLVQAGGSLRLSCAASGSIFYRYAMGWSRPAPRKERELVAAISRSGGRTYYADSVKGRFTISRDISKKTVYLQMYSLKAEDTAVYYCADESNVGTDLGGDSWGQGTQVTVSS | high polyreactivity
QVQLVESGGGLVQAGGSLRLSCAASGSIFYRYAMGWYRPAPGKERELVAAITSGGTYYADSVKGRFTISRDNAKNTVYLQMNSLKPEDTAVYYCNRFSYPPSWYDYWGQGTQVTVSS | low polyreactivity
QVQLVESGGGLVQAGGSLRLSCAASGSIFYRYAMGWYRQAPGKERELVAAIRWSGGSTYYADSVKGRFTISRDNAKNTVYLQMNSLKPEDTAVYYCNGTWAYRGHGYWGQGTQVTVSS | low polyreactivity
QVQLVESGGGLVQAGGSLRLSCAASGSIFYRYAMGWYRQAPGKERELVAAISRSGASTYYADSVKGRFTISRDNAKNTVYLQMNSLKPEDTAVYYCNALFSKFTNRYDYWGQGTQVTVSS | high polyreactivity
QVQLVESGGGLVQAGGSLRLSCAASGSIFYRYAMGWYRQAPGKERELVAAISSTGSTYYADSVKGRFTISRDNAKNTVYLQMNSLKPEDTAVYYCAARQGFRSYRRYDYWGQGTQVTVSS | high polyreactivity
QVQLVESGGGLVQAGGSLRLSCAASGSIFYRYAMGWYRQAPGKERELVAAISSTGSTYYADSVKGRFTISRDNAKNTVYLQMNSLKPEDTAVYYCAARQGYRSYRRYDYWGQGTQVTVSS | high polyreactivity
QVQLVESGGGLVQAGGSLRLSCAASGSIFYSNAMGWYRQAPGKERELVAAITLSGRRTYYADSVKGRFTISRDNAKNTVYLQMISLKPEDTADYYCATVPYKTGYKFEYWGQGTQVTVSS | high polyreactivity
QVQLVESGGGLVQAGGSLRLSCAASGSIFYSNAMGWYRQAPGKERELVAAITWSGGSTYYADSVKGRFTFSRDNAKNTVYLQKNSLKPEDTSVYYCNARRNVRQTFGYEDWGQGTQVTVSS | high polyreactivity
QVQLVESGGGLVQAGGSLRLSCAASGSIFYSNVMGWYRLAPGKERELVAAITRGGGTNYADSVKGRFTISRDNAKNTVYLQMNSLKPEDTAVYYCNRDPQKYRWIPRYDYWGQGTQVTVSS | low polyreactivity
QVQLVESGGGLVQAGGSLRLSCAASGSIFYSNVMGWYRQATGKERELVAAIRYSGVGTYYADSVKGRFTISRDNAKNTVYLQMNSLKPEDTAVYYSNAVTKVGYLRRRDYWGQGTQVTVSS | low polyreactivity
QVQLVESGGGLVQAGGSLRLSCAASGSIFYSYAMGWYRQAPGKERELVAAINSGGRTYYADSVKGRFTISRDNAKNTVYLQMNSLKPEDTAVYYCAARHRWGRAYDYWGQGTQVTVSS | high polyreactivity
QVQLVESGGGLVQAGGSLRLSCAASGSIFYSYAMGWYRQAPGKERELVAAITTGGSTYYADSVKGRFTISRDNAKNTVYLQMNSLKPEDTAVYYCAADFKPTVTNEPKELDYWGQGTQVTVSS | low polyreactivity
QVQLVESGGGLVQAGGSLRLSCAASGSIFYSYAMGWYRQAPGKERELVAGIRSDGNTNYADSVKGRFTISRDNAKNTVYLQMNSLKPEDTAVYYCARLRYFLLNGSLRYGTSDRDYWGQGTQVTVSS | high polyreactivity
QVQLVESGGGLVQAGGSLRLSCAASGSIFYSYAMGWYRRAPGKERELVARITSSTGRTYYADSVKGRFTISRDNAKNTVYLQMNSLKAEDTAVYYCNVVVKGAWDYYPYDYWGQGTQVTVSS | high polyreactivity

— the nanobody polyreactivity screen of Harvey et al. (2022)
